Read-outs that look alike come from different tables or passages of the source. Each block holds one molecule with its values, some of them ahead of it. Starred links: 1 amine or outer side, 2 acyl side, 3 side chain; linkers in the order of their positions; H or OH if unused. Positions of bridges follow the written chain, without caps; N, C: chain ends. Non-standard residues stand in square brackets, D forms with d. No end group written: not given here. *: point of attachment. KCOmeglumine = N6-(methyl-((2S,3R,4R,5R)-2,3,4,5,6-pentahydroxyhexyl)carbamoyl)-L-lysine, CN(C[C@H](O)[C@@H](O)[C@H](O)[C@H](O)CO)C(=O)NCCCC[C@H](N[*:1])C(=O)[*:2]; KCOpipzaa = N6-(4-(carboxymethyl)piperazine-1-carbonyl)-L-lysine, O=C(NCCCC[C@H](N[*:1])C(=O)[*:2])N1CCN(CC(=O)[*:3])CC1; CH3O(CH2CH2O)7C2H4CO = COCCOCCOCCOCCOCCOCCOCCOCCC(=O)*; Phe(4-guanidino) = N=C(N)Nc1ccc(C[C@H](N)C(=O)O)cc1; Trp(6-aza) = N[C@@H](Cc1c[nH]c2cnccc12)C(=O)O; 1Nal = N[C@@H](Cc1cccc2ccccc12)C(=O)O; Gly(NCH2CH2Ph) = O=C(O)CNCCc1ccccc1; 3Pal = N[C@@H](Cc1cccnc1)C(=O)O; 4Pal = N[C@@H](Cc1ccncc1)C(=O)O
Experiments:
[1] = biological target: T1, recombinant human TGF-β1 (Homo sapiens, UniProt P01137); experiment: ELISA of HA-tagged peptides with TGF-β1 beads; format: binding; details: relative value with binding of peptide TGFb1_061 (SEQ ID NO: 62) to TGF-β1 set to 100%; HA-tagged peptides, TGF-β1 beads ELISA
T1 construct: purchased R&D systems
Text: In this Example, ELISA was used to evaluate the binding between TGF-β1 and each of various peptides consisting of the amino acid sequences set forth in SEQ ID NOs: 34-69 synthesized in Examples 6 and 7. An HA-tag was attached to the G end of the C-terminal linker of the peptide consisting of the amino acid sequence set forth in SEQ ID NOs: 34-69. As used herein, the “HA-tag” means the amino acid sequence of PEG10[…] (SEQ ID NO: 70).
The binding activity of each peptide to TGF-β1 was examined by ELISA using the peptide consisting of the amino acid sequence set forth in SEQ ID NOs: 34-69 having an HA-tag attached and TGF-β1 beads.
Recombinant human TGF-β1 (R&D Systems) was immobilized on Dynabead M-270 Carboxylic Acid (Thermo fisher scientific) to prepare TGF-β1 beads. The immobilization reaction was performed using the Amine Coupling kit (DOJINDO LABORATORIES).
TGF-β1 beads and each peptide having the HA-tag sequence attached at the C-terminus were reacted in PBS (PBS-T) containing 0.1% Tween 20 (NACALAI TESQUE, INC.) for 1 hour and then washed by PBS-T. To detect the peptide bound to the TGF-β1 beads, an anti-HA-tag mAb-HRP-DirecT (MBL) and the TGF-β1 beads were reacted in PBS-T containing 1% BSA for 30 min. After washing with PBST, a SureBlue TMB Microwell Peroxidase Substrate (Kirkegaard & Perry Laboratories) was added for coloration for 10 min. TMB stop solution (Kirkegaard & Perry Laboratories) was then added to stop the coloration reaction. An EnSpire (Perkin Elmer) was used to measure absorbance.
Note that the binding activity was expressed as a relative value when the ability of binding the peptide TGFb1_061 (SEQ ID NO: 62) to TGF-β1 was set to 100%.

[2] = biological target: T2, recombinant human TGF-β1 (R&D systems) (human, UniProt P01137 279-390); experiment: cell-based or functional assay
[3] = biological target: T2, recombinant human TGF-β1 (R&D systems); experiment: cell-based or functional assay; remark: listed apart in the source

T2 sequence (P01137 279-390 limits assumed): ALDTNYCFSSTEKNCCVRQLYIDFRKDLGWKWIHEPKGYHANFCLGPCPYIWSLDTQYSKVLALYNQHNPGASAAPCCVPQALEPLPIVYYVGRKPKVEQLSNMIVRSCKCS
T1 sequence (P01137 279-390 limits assumed): as above

Activity of binding to TGF-β [1]: 80%
Molecule: 48 ({CH2CO}-F[1Nal]VVNVEDD[Gly(NCH2CH2Ph)]V[1Nal]YHVCG; thioether N-16; also: HA-tag) [compound 48]

Activity of binding to TGF-β [1]: 80%
Molecule: 49 ({CH2CO}-F[1Nal]VVNVYDD[Gly(NCH2CH2Ph)]V[1Nal][4Pal]HVCG; thioether N-16; also: HA-tag) [compound 49]

Activity of binding to TGF-β [1]: 81%
Molecule: 50 ({CH2CO}-F[1Nal]VVNVYDD[Gly(NCH2CH2Ph)]V[1Nal]YHQCG; thioether N-16; also: HA-tag) [compound 50]

Activity of binding to TGF-β [1]: 84%
Molecule: 51 ({CH2CO}-F[1Nal]VKNVYDD[Gly(NCH2CH2Ph)]V[1Nal]YHVCG; thioether N-16; also: HA-tag) [compound 51]

Activity of binding to TGF-β [1]: 85%
Molecule: 52 ({CH2CO}-F[Trp(6-aza)]VVNVYDD[Gly(NCH2CH2Ph)]V[1Nal]YHVCG; thioether N-16; also: HA-tag) [compound 52]

Activity of binding to TGF-β [1]: 86%
Molecule: 53 ({CH2CO}-F[1Nal]VVNVYDDKV[1Nal]YHVCG; thioether N-16; also: HA-tag) [compound 53]

Activity of binding to TGF-β [1]: 87%
Molecule: 54 ({CH2CO}-F[1Nal]VVNV[Phe(4-guanidino)]DD[Gly(NCH2CH2Ph)]V[1Nal]YHVCG; thioether N-16; also: HA-tag) [compound 54]

Activity of binding to TGF-β [1]: 89%
Molecule: 55 ({CH2CO}-F[1Nal]VVNVYDD[Gly(NCH2CH2Ph)]V[1Nal]YHECG; thioether N-16; also: HA-tag) [compound 55]

Activity of binding to TGF-β [1]: 90%
Molecule: 56 ({CH2CO}-FWVVNVYDD[Gly(NCH2CH2Ph)]V[1Nal]YHVCG; thioether N-16; also: HA-tag) [compound 56]

Activity of binding to TGF-β [1]: 90%
Molecule: 57 ({CH2CO}-F[1Nal]VVNVQDD[Gly(NCH2CH2Ph)]V[1Nal]YHVCG; thioether N-16; also: HA-tag) [compound 57]

Activity of binding to TGF-β [1]: 93%
Molecule: 58 ({CH2CO}-F[1Nal]VVNVYED[Gly(NCH2CH2Ph)]V[1Nal]YHVCG; thioether N-16; also: HA-tag) [compound 58]

Activity of binding to TGF-β [1]: 95%
Molecule: 59 ({CH2CO}-F[1Nal]VVNVYDD[Gly(NCH2CH2Ph)]V[1Nal][3Pal]HVCG; thioether N-16; also: HA-tag) [compound 59]

Activity of binding to TGF-β [1]: 95%
Molecule: 60 ({CH2CO}-F[1Nal]VVNVYDQ[Gly(NCH2CH2Ph)]V[1Nal]YHVCG; thioether N-16; also: HA-tag) [compound 60]

Activity of binding to TGF-β [1]: 98%
Molecule: 61 ({CH2CO}-F[1Nal]VVNVYKD[Gly(NCH2CH2Ph)]V[1Nal]YHVCG; thioether N-16; also: HA-tag) [compound 61]

Activity of binding to TGF-β [1]: 100%
Molecule: 62 ({CH2CO}-F[1Nal]VVNVYDD[Gly(NCH2CH2Ph)]V[1Nal]YHVCG; thioether N-16; also: HA-tag) [compound 62]

Activity of binding to TGF-β [1]: 102%
Molecule: 63 ({CH2CO}-F[1Nal]VVNVKDD[Gly(NCH2CH2Ph)]V[1Nal]YHVCG; thioether N-16; also: HA-tag) [compound 63]

Activity of binding to TGF-β [1]: 102%
Molecule: 64 ({CH2CO}-F[1Nal]VVNVYDK[Gly(NCH2CH2Ph)]V[1Nal]YHVCG; thioether N-16; also: HA-tag) [compound 64]

SBE reporter % inhibition, peptide 0.062 nM [2]: 5.21% | SBE reporter % inhibition, peptide 0.185 nM [2]: 11.3% | SBE reporter % inhibition, peptide 0.56 nM [2]: 30.2% | SBE reporter % inhibition, peptide 1.7 nM [2]: 61.6% | SBE reporter % inhibition, peptide 5.0 nM [2]: 87.8% | SBE reporter % inhibition, peptide 15.0 nM [2]: 96.4%
B1: TGFb1_019 (peptide)
peptide: {CH2CO}-F[1Nal]V[KCOpipzaa]NV[4Pal]DD[Gly(NCH2CH2Ph)]V[1Nal]YH[KCOpipzaa]CG-NH2
modifications: thioether N-16
SMILES: CC(C)[C@@H]1NC(=O)CN(CCc2ccccc2)C(=O)[C@H](CC(=O)O)NC(=O)[C@H](CC(=O)O)NC(=O)[C@H](Cc2ccncc2)NC(=O)[C@H](C(C)C)NC(=O)[C@H](CC(N)=O)NC(=O)[C@H](CCCCNC(=O)N2CCN(CC(=O)O)CC2)NC(=O)[C@H](C(C)C)NC(=O)[C@H](Cc2cccc3ccccc23)NC(=O)[C@H](Cc2ccccc2)NC(=O)CSC[C@@H](C(=O)NCC(N)=O)NC(=O)[C@H](CCCCNC(=O)N2CCN(CC(=O)O)CC2)NC(=O)[C@H](Cc2c[nH]cn2)NC(=O)[C@H](Cc2ccc(O)cc2)NC(=O)[C@H](Cc2cccc3ccccc23)NC1=O

SBE reporter % inhibition, peptide 0.062 nM [2]: 8.5% | SBE reporter % inhibition, peptide 0.185 nM [2]: 15.8% | SBE reporter % inhibition, peptide 0.56 nM [2]: 36.3% | SBE reporter % inhibition, peptide 1.7 nM [2]: 70.4% | SBE reporter % inhibition, peptide 5.0 nM [2]: 89.3% | SBE reporter % inhibition, peptide 15.0 nM [2]: 96.9%
B2: TGFb1_020 (peptide)
peptide: {CH2CO}-F[1Nal]V[KCOmeglumine]NV[4Pal]DD[Gly(NCH2CH2Ph)]V[1Nal]YH[KCOpipzaa]CG-NH2
modifications: thioether N-16
SMILES: CC(C)[C@@H]1NC(=O)CN(CCc2ccccc2)C(=O)[C@H](CC(=O)O)NC(=O)[C@H](CC(=O)O)NC(=O)[C@H](Cc2ccncc2)NC(=O)[C@H](C(C)C)NC(=O)[C@H](CC(N)=O)NC(=O)[C@H](CCCCNC(=O)N(C)C[C@H](O)[C@@H](O)[C@H](O)[C@H](O)CO)NC(=O)[C@H](C(C)C)NC(=O)[C@H](Cc2cccc3ccccc23)NC(=O)[C@H](Cc2ccccc2)NC(=O)CSC[C@@H](C(=O)NCC(N)=O)NC(=O)[C@H](CCCCNC(=O)N2CCN(CC(=O)O)CC2)NC(=O)[C@H](Cc2c[nH]cn2)NC(=O)[C@H](Cc2ccc(O)cc2)NC(=O)[C@H](Cc2cccc3ccccc23)NC1=O

SBE reporter % inhibition, peptide 0.062 nM [2]: 6.49% | SBE reporter % inhibition, peptide 0.185 nM [2]: 20.8% | SBE reporter % inhibition, peptide 0.56 nM [2]: 53.8% | SBE reporter % inhibition, peptide 1.7 nM [2]: 85.2% | SBE reporter % inhibition, peptide 5.0 nM [2]: 97.1% | SBE reporter % inhibition, peptide 15.0 nM [2]: 99.5%
B3: TGFb1_022 (peptide)
peptide: {CH2CO}-F[1Nal]VVNV[4Pal]D[KCOpipzaa][Gly(NCH2CH2Ph)]V[1Nal]YH[KCOpipzaa]CG-NH2
modifications: thioether N-16
SMILES: CC(C)[C@@H]1NC(=O)CN(CCc2ccccc2)C(=O)[C@H](CCCCNC(=O)N2CCN(CC(=O)O)CC2)NC(=O)[C@H](CC(=O)O)NC(=O)[C@H](Cc2ccncc2)NC(=O)[C@H](C(C)C)NC(=O)[C@H](CC(N)=O)NC(=O)[C@H](C(C)C)NC(=O)[C@H](C(C)C)NC(=O)[C@H](Cc2cccc3ccccc23)NC(=O)[C@H](Cc2ccccc2)NC(=O)CSC[C@@H](C(=O)NCC(N)=O)NC(=O)[C@H](CCCCNC(=O)N2CCN(CC(=O)O)CC2)NC(=O)[C@H](Cc2c[nH]cn2)NC(=O)[C@H](Cc2ccc(O)cc2)NC(=O)[C@H](Cc2cccc3ccccc23)NC1=O

SBE reporter % inhibition, peptide 0.062 nM [3]: 9.29% | SBE reporter % inhibition, peptide 0.185 nM [3]: 20.1% | SBE reporter % inhibition, peptide 0.56 nM [3]: 51.9% | SBE reporter % inhibition, peptide 1.7 nM [3]: 84.9% | SBE reporter % inhibition, peptide 5.0 nM [3]: 96.7% | SBE reporter % inhibition, peptide 15.0 nM [3]: 99.1%
B4: TGFb1_031 (peptide)
peptide: {CH2CO}-F[1Nal]VVNV[4Pal]DD[Gly(NCH2CH2Ph)]V[1Nal]YH[KCOpipzaa]CGK(CH3O(CH2CH2O)7C2H4CO)-NH2
modifications: thioether N-16
SMILES: COCCOCCOCCOCCOCCOCCOCCOCCC(=O)NCCCC[C@H](NC(=O)CNC(=O)[C@@H]1CSCC(=O)N[C@@H](Cc2ccccc2)C(=O)N[C@@H](Cc2cccc3ccccc23)C(=O)N[C@@H](C(C)C)C(=O)N[C@@H](C(C)C)C(=O)N[C@@H](CC(N)=O)C(=O)N[C@@H](C(C)C)C(=O)N[C@@H](Cc2ccncc2)C(=O)N[C@@H](CC(=O)O)C(=O)N[C@@H](CC(=O)O)C(=O)N(CCc2ccccc2)CC(=O)N[C@@H](C(C)C)C(=O)N[C@@H](Cc2cccc3ccccc23)C(=O)N[C@@H](Cc2ccc(O)cc2)C(=O)N[C@@H](Cc2c[nH]cn2)C(=O)N[C@@H](CCCCNC(=O)N2CCN(CC(=O)O)CC2)C(=O)N1)C(N)=O
notes: cyclic peptide; linker G K(MePEG8c) at the C-terminus

SBE reporter % inhibition, peptide 0.062 nM [2]: 10.9% | SBE reporter % inhibition, peptide 0.185 nM [2]: 14.3% | SBE reporter % inhibition, peptide 0.56 nM [2]: 29.9% | SBE reporter % inhibition, peptide 1.7 nM [2]: 52.5% | SBE reporter % inhibition, peptide 5.0 nM [2]: 80.8% | SBE reporter % inhibition, peptide 15.0 nM [2]: 95.2%
B5: TGFb1_030 (peptide)
peptide: {CH2CO}-F[1Nal]V[KCOmeglumine]NV[4Pal]D[KCOmeglumine][Gly(NCH2CH2Ph)]V[1Nal]YHECG-NH2
modifications: thioether N-16
SMILES: CC(C)[C@@H]1NC(=O)CN(CCc2ccccc2)C(=O)[C@H](CCCCNC(=O)N(C)C[C@H](O)[C@@H](O)[C@H](O)[C@H](O)CO)NC(=O)[C@H](CC(=O)O)NC(=O)[C@H](Cc2ccncc2)NC(=O)[C@H](C(C)C)NC(=O)[C@H](CC(N)=O)NC(=O)[C@H](CCCCNC(=O)N(C)C[C@H](O)[C@@H](O)[C@H](O)[C@H](O)CO)NC(=O)[C@H](C(C)C)NC(=O)[C@H](Cc2cccc3ccccc23)NC(=O)[C@H](Cc2ccccc2)NC(=O)CSC[C@@H](C(=O)NCC(N)=O)NC(=O)[C@H](CCC(=O)O)NC(=O)[C@H](Cc2c[nH]cn2)NC(=O)[C@H](Cc2ccc(O)cc2)NC(=O)[C@H](Cc2cccc3ccccc23)NC1=O
